Data on three molecules can be found in article PMC2267068, “Comparative Analysis of Metal Binding Characteristics of Copper Chaperone Proteins, Atx1 and ATOX1” (Bioinorganic Chemistry and Applications, 2004).

One may read the stoichiometry N as a count of units in the complex or per binding partner.

Where “and” joins values, the source holds several entries; their conditions need not be identical. Equal entries are not always repeated.

In data set [1] the target is T1, ATOX1 (human copper chaperone), wild type (human), O00244.
T1 chain: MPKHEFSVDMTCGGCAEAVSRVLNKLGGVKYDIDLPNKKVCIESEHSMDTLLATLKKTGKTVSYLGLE
Put plainly: cross-linking; metal complexes + DTT (which metals not told), DMS or EGS; faint higher bands on SDS-PAGE. The settings on record: remark: other sources report otherwise.

In data set [2] the target is T1, ATOX1 (human copper chaperone), wild …. Put plainly: SEC; Bio-Gel P-10 column (1.5 x 60 cm), 20 mM MES pH 6.0; reduced apoprotein (+DTT 3:1); 0.3, 0.5 and 0.3 mM ATOX1, C41S-ATOX1 and Atx1; size against myoglobin (18 kDa) and cytochrome C (12.5 kDa). The settings on record: remark: other sources report otherwise.
Data set [3] has the same target. As to the kind of experiment: cross-linking; DMS (spacer arm 11 A), Cd(II) + DTT; products on SDS-PAGE. The settings on record: remark: other sources report otherwise.
For data set [4] the target is unchanged. As to the kind of experiment: cross-linking; EGS (spacer arm 16.1 A), Cd(II) + DTT; products on SDS-PAGE. The settings on record: remark: other sources report otherwise.
Data set [5] shares this target. Put plainly: cross-linking; Hg(II) + DTT; DMS or EGS for ATOX1, EGS for Atx1; products on SDS-PAGE. The settings on record: remark: other sources report otherwise.
The target is the same in data set [6]. Put plainly: SEC; Bio-Gel P-10 column (1.5 x 60 cm), 20 mM MES pH 6.0; Cd(II) complex (metal 1:1, DTT 3:1); 0.3, 0.5 and 0.3 mM ATOX1, C41S-ATOX1 and Atx1; size against myoglobin (18 kDa) and cytochrome C (12.5 kDa). The settings on record: remark: other sources report otherwise. A general note: Size exclusion chromatography separates by hydrodynamic size, large species first.

Data set [7] deals with the molecule itself. Put plainly: SEC; Bio-Gel P-10 column (1.5 x 60 cm), 20 mM MES pH 6.0; reduced apoprotein (+DTT 3:1); 0.3, 0.5 and 0.3 mM ATOX1, C41S-ATOX1 and Atx1; size against myoglobin (18 kDa) and cytochrome C (12.5 kDa).
Data set [8] has as its target T2, Atx1 (yeast copper chaperone) (yeast (Saccharomyces cerevisiae)), P38636.
T2 chain: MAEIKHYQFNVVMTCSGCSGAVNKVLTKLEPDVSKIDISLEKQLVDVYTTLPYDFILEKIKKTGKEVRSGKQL
The data set is described as above. The settings on record: remark: other sources report otherwise.

Data set [9] addresses T2, Atx1 (yeast copper chaperone) (yeast …). Put plainly: cross-linking; EGS (spacer arm 16.1 A), Cd(II) + DTT; products on SDS-PAGE. The settings on record: remark: other sources report otherwise.
For data set [10] the target is unchanged. Put plainly: cross-linking; Hg(II) + DTT; DMS or EGS for ATOX1, EGS for Atx1; products on SDS-PAGE. The settings on record: remark: other sources report otherwise.
For data set [11] the target is unchanged. As to the kind of experiment: SEC; Bio-Gel P-10 column (1.5 x 60 cm), 20 mM MES pH 6.0; Cd(II) complex (metal 1:1, DTT 3:1); 0.3, 0.5 and 0.3 mM ATOX1, C41S-ATOX1 and Atx1; size against myoglobin (18 kDa) and cytochrome C (12.5 kDa). The settings on record: remark: other sources report otherwise.

B1: ATOX1 (human copper chaperone), wild type, O00244 1-68 (natural protein)
chain: MPKHEFSVDMTCGGCAEAVSRVLNKLGGVKYDIDLPNKKVCIESEHSMDTLLATLKKTGKTVSYLGLE
Consider B1, for which the stoichiometry N in [1] is 3 and 4; in [2], 2; in data set [3] it was 2; in data set [4], 2; in [5], 2; in data set [6], 2.

B2: C41S-ATOX1 (natural protein, human, UniProt O00244 1-68, looked up)
chain: MPKHEFSVDMTCGGCAEAVSRVLNKLGGVKYDIDLPNKKVSIESEHSMDTLLATLKKTGKTVSYLGLE
notes: ATOX1 (HAH1), human copper chaperone, with the non-conserved Cys 41 mutated to Ser; Made on the ATOX1 construct in pGEX-6P-2 to imitate Atx1, which lacks this Cys; also called C41S-ATOXI; source: E. coli BL21 (DE3), GST fusion from pGEX-6P-2, purified, GST removed with PreScission protease; not shown: GST, N-terminal, cleaved
Regarding B2, the “stoichiometry N” value in data set [7] came to 2.

B3: Atx1 (yeast copper chaperone), P38636 1-73 (natural protein)
chain: MAEIKHYQFNVVMTCSGCSGAVNKVLTKLEPDVSKIDISLEKQLVDVYTTLPYDFILEKIKKTGKEVRSGKQL
In the case of B3, the stoichiometry N in data set [8], in data set [9], in data set [10] and in data set [11] was 2 throughout.
